Changes are numbered by the printed parent chain.
What was measured:
[1] = target: T1, recombinant nesfatin-1 (UniProt P81117)
T1 sequence: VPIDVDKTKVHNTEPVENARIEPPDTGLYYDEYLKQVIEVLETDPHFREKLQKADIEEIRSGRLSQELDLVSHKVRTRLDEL

[2] = test system: T2, pladin mutant A4 (Lys28→Ala)
T2 sequence: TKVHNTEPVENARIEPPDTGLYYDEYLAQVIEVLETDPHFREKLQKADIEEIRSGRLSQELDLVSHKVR

[3] = test system: T3, recombinant pladin (plasma anti-diabetic nucb2 peptide)
T3 sequence: T2 sequence with A28K

[4] = test system: T4, acetylated rPladin
T4 sequence: T2 sequence with A28K

[5] = test system: T5, pladin mutant A5 (Lys13→Ala)
T5 sequence: T2 sequence with R13A, A28K

plasmin, sequence (P00747 20-580): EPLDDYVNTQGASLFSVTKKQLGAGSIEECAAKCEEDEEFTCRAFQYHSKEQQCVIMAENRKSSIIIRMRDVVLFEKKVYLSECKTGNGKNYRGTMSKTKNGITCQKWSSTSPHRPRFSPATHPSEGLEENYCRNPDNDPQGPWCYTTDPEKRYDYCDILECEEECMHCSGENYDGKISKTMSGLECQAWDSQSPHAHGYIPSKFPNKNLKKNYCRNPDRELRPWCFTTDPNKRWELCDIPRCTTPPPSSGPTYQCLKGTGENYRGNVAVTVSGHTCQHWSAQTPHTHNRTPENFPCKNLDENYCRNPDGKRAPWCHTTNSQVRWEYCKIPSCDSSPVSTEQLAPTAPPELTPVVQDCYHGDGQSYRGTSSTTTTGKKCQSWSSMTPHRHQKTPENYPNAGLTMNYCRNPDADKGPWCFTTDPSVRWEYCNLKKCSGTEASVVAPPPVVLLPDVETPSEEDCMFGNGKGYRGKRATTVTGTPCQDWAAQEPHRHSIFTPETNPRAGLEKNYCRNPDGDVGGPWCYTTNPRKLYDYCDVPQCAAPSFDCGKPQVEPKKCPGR
plasmin, sequence (P00747 581-810): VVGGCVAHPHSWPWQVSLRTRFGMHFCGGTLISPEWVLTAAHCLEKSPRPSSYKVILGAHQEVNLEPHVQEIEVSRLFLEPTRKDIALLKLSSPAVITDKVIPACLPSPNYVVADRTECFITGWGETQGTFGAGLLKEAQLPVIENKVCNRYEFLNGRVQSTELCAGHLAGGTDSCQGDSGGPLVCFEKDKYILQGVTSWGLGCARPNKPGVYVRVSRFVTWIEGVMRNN

In the case of plasmin, the “digestion by plasmin in vitro” value [1] is reported as “Nesfatin-1 was completely digested by plasmin within 2 hours”, the “plasmin proteolysis in vitro” value [2] is reported as “resistant to plasmin proteolysis” and the “degradation on incubation with plasmin in vitro” value [3] is reported as “when rPladin was incubated with plasmin, it was rapidly degraded”. The “plasmin proteolysis in vitro” value [4] was “resistant to plasmin proteolysis” and the “plasmin proteolysis in vitro” value [5] was “resistant to plasmin proteolysis”.

From patent US20100235935
